From US20030092037A1, “Elk1 phosphorylation related gene” (priority 2001, published 2003)

B1: 18 (protein, listed as Homo sapiens)
chain: MPVQLSEHPEWNESMHSLRISVGGLPVLASMTKAADPRFRPRWKVILTFFVGAAILWLLCSHRPAPGRPPTHNAHNWRLGQAPANWYNDTYPLSPPQRTPAGIRYRIAVIADLDTESRAQEENTWFSYLKKGYLTLSDSGDKVAVEWDKDHGVLESHLAEKGRGMELSDLIVFNGKLYSVDDRTGVVYQIEGSKAVPWVILSDGDGTVEKGFKAEWLAVREIVRKRWRLVKQVSHVGVLGQWIQR
B2: 30 (protein, listed as Homo sapiens)
chain: MDARWWAVVVLAAFPSLGAGGETPEAPPESWTQLWFFRFVVNAAGYASFMVPGYLLVQYFRRKNYLETGRGLCFPLVKACVFGNEPKASDEVPLAPRTEAAETTPMWQALKLLFCATGLQVSYLTWGVLQERVMTRSYGATATSPGERFTDSQFLVLMNRVLALIVAGLSCVLCKQPRHGAPMYRYSFASLSNVLSSWCQYEALKFVSFPTQVLAKASKVIPVMLMGKLVSRRSYEHWEYLTATLISIGVSMFLLSSGPEPRSSPATTLSGLFTVGSLLEQGALLEGTRFMGRHSEFAAHALLLSICSACGQLFIFYTIGQFGAAVFTIIMTLRQAFAILLSCLLYGHTVTVVGGLGVAVVFAALLLRVYARGRLKQRGKKAVPVESPVQKV
B3: 28 (protein, listed as Homo sapiens)
chain: MTSFEDADTEETVTCLQMTVYHPGQLQCGIFQSISFNREKLPSSEVVKFGRNSNICHYTFQDKQVSRVQFSLQLFKKFNSSVLSFEIKNMSKKTNLIVDSRELGYLNKMDLPYRCMVRFGEYQFLMEKEDGESLEFFETQFILSPRSLLQENNWPPHRPIPEYGTYSLCSSQSSSPTEMDENES
B4: 26 (protein, listed as Homo sapiens)
chain: MALALAALAAVEPACGSRYQQLQNEEESGEPEQAAGDAPPPYSSISAESAAYFDYKDESGFPKPPSYNVATTLPSYDEAERTKAEATIPLVPGRDEDFVGRDDFDDADQLRIGNDGIFMLTFFMAFLFNWIGFFLSFCLTTSAAGRYGAISGFGLSLIKWILIVRFSTYFPGYFDGQYWLWWVFLVLGFLLFLRGFINYAKVRKMPETFSNLPRTRVLFIY
B5: 6 (protein, listed as Homo sapiens)
chain: MEGPGLGSQCRNHSHGPHPPGFGRYGICAHENKELANAREALPLIEDSSNCDIVKATQYGIFERCKELVEAGYDVRQPDKENVSLLHWAAINNRLDLVKFYISKGAVVDQLGGDLNSTPLHWAIRQGHLPMVILLLQHGADPTLIDGEGFSSIHLAVLFQHMPIIAYLISKGQSVNMTDVNGQTPLMLSAHKVIGPEPTGFLLKFNPSLNVVDKIHQNTPLHWAVAAGNVNAVDKLLEAGSSLDIQNVKGETPLDMALQNKNQLIIHMLKTEAKMRANQKFRLWRWLQKCELFLLLMLSVITMWAIGYILDFNSDSWLLKGCLLVTLFFLTSLFPRFLVGYKNLVYLPTAFLLSSVFWIFMTWFILFFPDLAGAPFYFSFIFSIVAFLYFFYKTWATDPGFTKASEEEKKVNIITLAETGSLDFRTFCTSCLIRKPLRSLHCHVCNCCVARYDQHCLWTGRCIGFGNHHYYIFFLFFLSMVCGWIIYGSFIYLSSHCATTFKEDGLWTYLNQIVACSPWVLYILMLATFHFSWSTFLLLNQLFQIAFLGLTSHERISLQKQSKHMKQTLSLRKTPYNLGFMQNLADFFQCGCFGLVKPCVVDWTSQYTMVFHPAREKVLRSV
B6: 12 (protein, listed as Homo sapiens)
chain: MDHHQPGTGRYQVLLNEEDNSESSAIEQPPTSNPAPQIVQAASSAPALETDSSPPPYSSITVEVPTTSDTEVYGEFYPVPPPYSVATSLPTYDEAEKAKAAAMAAAAAETSQRIQEEECPPRDDFSDADQLRVGNDGIFMLAFFMAFIFNWLGFCLSFCITNTIAGRYGAICGFGLSLIKWILIVRFSDYFTGYFNGQYWLWWIFLVLGLLLFFRGFVNYLKVRNMSESMAAAHRTRYFFLL
B7: 16 (protein, listed as Homo sapiens)
chain: MSSLGGGSQDAGGSSSSSTNGSGGSGSSGPKAGAADKSAVVAAAAPASVADDTPPPERRNKSGIISEPLNKSLRRSRPLSHYSSFGSSGGSGGGSMMGGESADKATAAAAAASLLANGHDLAAAMAVDKSNPTSKHKSGAVASLLSKAERATELAAEGQLTLQQFAQSTEMLKRVVQEHLPLMSEAGAGLPDMEAVAGAEALNGQSDFPYLGAFPINPGLFIMTPAGVFLAESALHMAGLAEYPMQGELASAISSGKKKRKRCGMCAPCRRRINCEQCSSCRNRKTGHQICKFRKCEELKKKPSAALEKVMLPTGAAFRWFQ

test system: MAP kinase cascade activation; test: Reporter activity reflecting MAP kinase cascade activation, corrected using an internal control (Elk1-GAL4 luciferase reporter in 293-EBNA cells); assay type: cell-based, human; details: 25 ng/well expression plasmid; 293-EBNA cells; 24 hours
Protocol: (in the presence of 5% CO2). […] The method used for introduction was in accordance with the attached protocol. After culturing for 24 hours at 37° C., reporter activity (firefly luciferase acitivity), which reflects MAP kinase cascade activation, and reporter activity being the internal control (sea pansy luciferase) were measured using Picagene Dual (purchased from Toyo Ink Manufacturing) in accordance with the manufacturer's instructions.
Luciferase activity was measured with Perkin Elmer's Wallac ARVOTMST 1420 MULTILABEL COUNTER.
Reporter activity where an expression plasmid comprising the above gene was introduced, which reflects MAP kinase cascade activation corrected with internal control reporter activity, is shown in Table 1, which is expressed as a factor of the same reporter activity where a null vector was introduced (S/B value).

In order of falling “Reporter activity corrected with internal control, as a factor of null vector (S/B value)” value (“Reporter activity corrected” for short):
1. B2  4.2
2. B7  3.4
3. B5  2.1
4. B6  2.1
5. B1  1.8
6. B3  1.8
7. B4  1.6

same assay, conditions: 50 ng/well expression plasmid; 293-EBNA cells; 24 hours

In order of rising “Reporter activity corrected” value:
1. B1  2.3
2. B3  2.3
3. B5  2.4
4. B6  2.7
5. B4  3.2
6. B2  6.3
7. B7  8.4

same assay, conditions: 100 ng/well expression plasmid; 293-EBNA cells; 24 hours

In order of rising “Reporter activity corrected” value:
1. B1  2.9
2. B3  2.9
3. B5  2.9
4. B6  3.9
5. B4  4.1
6. B2  7.6
7. B7  8.1

same assay, conditions: plasmid 12.5 ng, 25 ng, 50 ng and 100 ng

With B1 the “Dependence of corrected reporter activity on amount of expression plasmid” value (“Dependence” below) was “increases that were dependent on the amount of expression plasmid”.
With B2 the “Dependence” value was “increases that were dependent on the amount of expression plasmid”.
B3 was tested, and the “Dependence” value was “increases that were dependent on the amount of expression plasmid”.
With B4 the “Dependence” value was “increases that were dependent on the amount of expression plasmid”.
For B5, the “Dependence” value was “increases that were dependent on the amount of expression plasmid”.
In the case of B6, the “Dependence” value is reported as “increases that were dependent on the amount of expression plasmid”.
For B7, the “Dependence” value was “increases that were dependent on the amount of expression plasmid”.
